Test results taken from PMC6054393, “Light induces oxidative damage and protein stability in the fungal photoreceptor Vivid” (PLoS ONE, 2018).
Values belong to the molecule of their own block, whether it stands above or below them.

How the values were obtained:
[1] = molecular target: Vivid (VVD) truncated at the N-terminus by 36 residues, with an N-terminal 6xHis tag (Neurospora crassa) (UniProt Q9C3Y6)
[2] = molecular target: the molecule itself; test: SDS-PAGE and Western blot of the aggregated pellet; purified VVD36 given a 5-min blue-light pulse, kept 24 h at 25°C in standard buffer (10% glycerol, 50 mM HEPES, 150 mM NaCl, 20 mM imidazole, pH 8), centrifuged; pellet run on SDS-PAGE and blotted against the 6xHis tag; with DTT present oligomer formation was limited

photoadduct mean lifetime of VVD with A. niger catalase at 2.34 uM (optical absorbance) [1]: 1100 s
Molecule: catalase from Aspergillus niger (from UniProt P55303 1-730) (enzyme)

B1: Vivid (VVD) truncated at the N-terminus by 36 residues, with an N-terminal 6xHis tag (domain or fragment, Neurospora crassa, UniProt Q9C3Y6 37-186, looked up)
chain: HTLYAPGGYDIMGYLIQIMNRPNPQVELGPVDTSCALILCDLKQKDTPIVYASEAFLYMTGYSNAEVLGRNCRFLQSPDGMVKPKSTRKYVDSNTINTMRKAIDRNAEVQVEVVNFKKNGQRFVNFLTMIPVRDETGEYRYSMGFQCETE
notes: Vivid (VVD), LOV photoreceptor of Neurospora crassa, wild type, first 36 amino acids deleted (VVD36); The plasmid came from B. R. Crane; The sample carries some self-oxidative damage (oxidised D82, Y87, F92, F159, N161 found in the aggregated pellet); also called VVD36; dark-VVD; not shown: His6, N-terminal, kept
binding result [2]: binds
